Reference: the RNAGym collection of RNA variant scans (doi:10.7554/elife.90254)

B1: OR4K15 (parent)
chain: GUUAACGGUCAUAGGCCAUGGAAACUAGGAGCACCAUUUCGCUGCCAGUGAAGAAAUGAACAAAGAAAAUCUGGGCCAGGCAGGCAUCAAAAGAAAUAGUCUUGCGCUCAACCAGAAAGUCUGUAAUCAUUUUAAGGGUA

Variants of: B1
Test: self-cleavage, relative activity (ratio to wild type); higher = more cleavage; in vitro, sequencing; the parent is a self-cleaving ribozyme

Variant	self-cleavage
GUUAACGGUCAUAGGCCAUGGAAACUAGGAGCACCAUUCCGCUGCCAGUGAAGAAAUGAACAAAGAAAAUCUGGGCCAGGCAGGCAUCAAAAGAAAUAGUCUUGCGCUCAACCAGAAAGUCUGUAACCAUUUUAAGGGUA [U39C U127C]	1.18
GUUAACGGUCAUAGGCCAUGGAAACUAGGAGCACCAUUCCGCUGCCAGUGAAGAAAUGAACAAAGAAAAUCUGGGCCAGGCAGGCACCAAAAGAAAUAGUCUUGCGCUCAACCAGAAAGUCUGUAAUCAUUUUAAGGGUA [U39C U87C]	1.31
GUUAACGGUCAUAGGCCAUGGAAACUAGGAGCACCAUUCCGCUGCCAGUGAAGAAAUGAACAAAGAAAAUCUGGGCCAGGCAGGCAUCAAAAGAAAAAGUCUUGCGCUCAACCAGAAAGUCUGUAAUCAUUUUAAGGGUA [U39C U97A]	1.16
GUUAACGGUCAUAGGCCAUGGAAACUAGGAGCACCAUUCCGCUGCCAGUGAAGAAAUGAACAAAGAAAAUCUGGGACAGGCAGGCAUCAAAAGAAAUAGUCUUGCGCUCAACCAGAAAGUCUGUAAUCAUUUUAAGGGUA [U39C C76A]	0.13
GUUAACGGUCAUAGGCCAUGGAAACUAGGAGCACCAUUCCGCUGCCAGUGAAGAAAUGAACAAAGAAAAUCUGGGCCAGGCAGGCAUCAAAAGAAAUAGUCUUGCGCUCAACCAGAAAGUCUGUAAUCAUUUUAAAGGUA [U39C G136A]	2.38
GUUAACGGUCAUAGGCCAUGGAAACUAGGAGCACCAUUGCGCUGCCAGUGAAGAAAUGAACAAAGAAAAUCUGGGCCAGGCAGGCAUCAAAAGAAUUAGUCUUGCGCUCAACCAGAAAGUCUGUAAUCAUUUUAAGGGUA [U39G A96U]	1.58
GUUAACGGUCAUAGGCCAUGGAAACUAGGAGCACCAUUCCGCUGCCAGUGAAGAAAUGAACAAAGAAAAUCUGGGCCAGGCAGGCAUCAAAAGAAAUAGUCUUGCGAUCAACCAGAAAGUCUGUAAUCAUUUUAAGGGUA [U39C C107A]	0.03
GUUAACGGUCAUAGGCCAUGGAAACUAGGAGCACCAUUGCGCUGCCAGUGGAGAAAUGAACAAAGAAAAUCUGGGCCAGGCAGGCAUCAAAAGAAAUAGUCUUGCGCUCAACCAGAAAGUCUGUAAUCAUUUUAAGGGUA [U39G A51G]	1.75
GUUAACGGUCAUAGGCCAUGGAAACUAGGAGCACCAUUCCGCUGCCAGUGAAGAAAUGAACAAAGAAAAUCUGGGCCAGGCAGGCAUCAAAAGAAAUAGUCUUGCACUCAACCAGAAAGUCUGUAAUCAUUUUAAGGGUA [U39C G106A]	0.01
GUUAACGGUCAUAGGCCAUGGAAACUAGGAGCACCAUUCCGCUGCCAGUGAAGAAAUGAACAAAGAAAAUCUGGGCCAGGCAGGCAUCAAAAGAAAUAGUUUUGCGCUCAACCAGAAAGUCUGUAAUCAUUUUAAGGGUA [U39C C101U]	0.46
GUUAACGGUCAUAGGCCAUGGAAACUAGGAGCACCAUUCCGCUGCCAAUGAAGAAAUGAACAAAGAAAAUCUGGGCCAGGCAGGCAUCAAAAGAAAUAGUCUUGCGCUCAACCAGAAAGUCUGUAAUCAUUUUAAGGGUA [U39C G48A]	1.14
GUUAACGGUCAUAGGCCAUGGAAACUAGGAGCACCAUUGCGCUGCCAGUGAAGAAAUGAACAAGGAAAAUCUGGGCCAGGCAGGCAUCAAAAGAAAUAGUCUUGCGCUCAACCAGAAAGUCUGUAAUCAUUUUAAGGGUA [U39G A64G]	1.12
GUUAACGGUCAUAGGCCAUGGAAACUAGGAGCACCAUUGCGCUGCCAGUGAAGAAAUGAACAAAGAAAAUCUGGGCCAGGCAGGCAUCAAAGGAAAUAGUCUUGCGCUCAACCAGAAAGUCUGUAAUCAUUUUAAGGGUA [U39G A92G]	1.57
GUUAACGGUCAUAGGCCAUGGAAACUAGGAGCACCAUUCCGCUGCCAGUGAAGAAAUGAACAAAGAAAAUCUGGGCCAGGCAGGGAUCAAAAGAAAUAGUCUUGCGCUCAACCAGAAAGUCUGUAAUCAUUUUAAGGGUA [U39C C85G]	0.99
GUUAACGGUCAUAGGCCAUGGAAACUAGGAGCACCAUUCCGCUGCCAGUAAAGAAAUGAACAAAGAAAAUCUGGGCCAGGCAGGCAUCAAAAGAAAUAGUCUUGCGCUCAACCAGAAAGUCUGUAAUCAUUUUAAGGGUA [U39C G50A]	1.2
GUUAACGGUCAUAGGCCAUGGAAACUAGGAGCACCAUUCCGCCGCCAGUGAAGAAAUGAACAAAGAAAAUCUGGGCCAGGCAGGCAUCAAAAGAAAUAGUCUUGCGCUCAACCAGAAAGUCUGUAAUCAUUUUAAGGGUA [U39C U43C]	1.57
GUUAACGGUCAUAGGCCAUGGAAACUAGGAGCACCAUUCCGCAGCCAGUGAAGAAAUGAACAAAGAAAAUCUGGGCCAGGCAGGCAUCAAAAGAAAUAGUCUUGCGCUCAACCAGAAAGUCUGUAAUCAUUUUAAGGGUA [U39C U43A]	1.92
GUUAACGGUCAUAGGCCAUGGAAACUAGGAGCACCAUUCCGCUGCCAGUGAAGAAAUGAACAAAGAAAAUCUGGGCCAGGCAGGCAUCAAAAGAAAUAGUCUUGCGCUCAACCAGAAAGUCUGUAAUCAUUCUAAGGGUA [U39C U132C]	1.12
GUUAACGGUCAUAGGCCAUGGAAACUAGGAGCACCAUUCCGCUGCCAGUGAAGAAAUGAACAAAGAAAAUCUGGGCCAGGCAGGCAUCAAAAGAAAUAGUCUUGCGCUCAACCAGAAAGUCUGUAAUCAUUAUAAGGGUA [U39C U132A]	0.7
GUUAACGGUCAUAGGCCAUGGAAACUAGGAGCACCAUUCCGCUGCCAGUGAAGAAAUGAACAAAGAAAAUCUGGGCCAGGCAGGCAUCAAAAGAAAUAGUCUUGCGCUCAACCAGAAAGUCUGUAAUCAUUUUAAGGAUA [U39C G138A]	1.78
GUUAACGGUCAUAGGCCAUGGAAACUAGGAGCACCAUUCCGCUGCCAGUGAAGAAAUGAACAAAGAAAAUCUGGGCCAGGCAGGCAUCAAAAGAAAUAGUCUUGCGCUCAACCAGAAAGUCGGUAAUCAUUUUAAGGGUA [U39C U122G]	1.81

Variant	self-cleavage
GUUAACGGUCAUAGGCCAUGGAAACUAGGAGCACCAUUCCGCUGCCAGUGAAGAAAUGAACAAAGAAAAUCUGGGCCAGGCAGGCAUCAAAAGAAAUAGUCUUGCGCUCAACCAGAAAGUCCGUAAUCAUUUUAAGGGUA [U39C U122C]	1.84
GUUAACGGUCAUAGGCCAUGGAAACUAGGAGCACCAUUCCGCUGCCAGUGAAGAAAUGAACAAAGAAAAUCUGGGCCAGGCAGGCAUCAAAAGAAAUAGUCUUGCGCUCAACCAGAAAGUCAGUAAUCAUUUUAAGGGUA [U39C U122A]	1.58
GUUAACGGUCAUAGGCCAUGGAAACUAGGAGCACCAUUCCGCUGCCAGUGAAGAAAUGAACAAAGAAAAUCUGGGCUAGGCAGGCAUCAAAAGAAAUAGUCUUGCGCUCAACCAGAAAGUCUGUAAUCAUUUUAAGGGUA [U39C C77U]	1.75
GUUAACGGUCAUAGGCCAUGGAAACUAGGAGCACCAUUCCGCUGCCAGUGAAGAAAUGAACAAAGAAAAUCUGGGCAAGGCAGGCAUCAAAAGAAAUAGUCUUGCGCUCAACCAGAAAGUCUGUAAUCAUUUUAAGGGUA [U39C C77A]	0.77
GUUAACGGUCAUAGGCCAUGGAAACUAGGAGCACCAUUCCGCUGCCAGAGAAGAAAUGAACAAAGAAAAUCUGGGCCAGGCAGGCAUCAAAAGAAAUAGUCUUGCGCUCAACCAGAAAGUCUGUAAUCAUUUUAAGGGUA [U39C U49A]	1.41
GUUAACGGUCAUAGGCCAUGGAAACUAGGAGCACCAUUGCGCUGCCUGUGAAGAAAUGAACAAAGAAAAUCUGGGCCAGGCAGGCAUCAAAAGAAAUAGUCUUGCGCUCAACCAGAAAGUCUGUAAUCAUUUUAAGGGUA [U39G A47U]	0.98
GUUAACGGUCAUAGGCCAUGGAAACUAGGAGCACCAUUCCGCUGCCAGUGAAGAAAUGAACAAAGAAAAUCUGGGCCAGGCAGGCAUCAAAAGAAAUAGUCUUGCGCCCAACCAGAAAGUCUGUAAUCAUUUUAAGGGUA [U39C U108C]	0.02
GUUAACGGUCAUAGGCCAUGGAAACUAGGAGCACCAUUCCGCUGCCAGUGAAGAAAUGAACAAAGAAAAUCUGGGCCAGGCAGGCAUCAAAAGAAAUAGUCUUACGCUCAACCAGAAAGUCUGUAAUCAUUUUAAGGGUA [U39C G104A]	0.03
GUUAACGGUCAUAGGCCAUGGAAACUAGGAGCACCAUUCCGCUGCCAGUGAAGAAAUGAACAAAGAAAAUCUGGGCCAGGGAGGCAUCAAAAGAAAUAGUCUUGCGCUCAACCAGAAAGUCUGUAAUCAUUUUAAGGGUA [U39C C81G]	0.16
GUUAACGGUCAUAGGCCAUGGAAACUAGGAGCACCAUUGCGCUGCCAGUGAAGAAAUGAACAAAGAAAAUCUGGGCCAGGCAGGCAUCAAAAGAAAUAGUCUUGCGCUCAACCAGAAAGUCUGUAAUCAUUUUAAGGGUA [U39G]	0.79
GUUAACGGUCAUAGGCCAUGGAAACUAGGAGCACCAUUGCGCUGCCAGUGAAGAAAUGAACAAAGAAAAUCUGGGCCAGGCAGGCAUCGAAAGAAAUAGUCUUGCGCUCAACCAGAAAGUCUGUAAUCAUUUUAAGGGUA [U39G A89G]	1.18
GUUAACGGUCAUAGGCCAUGGAAACUAGGAGCACCAUUCCGCUGCCAGUGAAGAAAUGAACAAAGAAAAUCUGGGCCAGGCAGGCAUCAAAAGAAAUAGUCUUGCGCUCAACCAGAAAGACUGUAAUCAUUUUAAGGGUA [U39C U120A]	2.52
GUUAACGGUCAUAGGCCAUGGAAACUAGGAGCACCAUUCCGCUGCCAGUGAAGAAAUGAACAAAGAAAAUCUGGGCCAUGCAGGCAUCAAAAGAAAUAGUCUUGCGCUCAACCAGAAAGUCUGUAAUCAUUUUAAGGGUA [U39C G79U]	0.1
GUUAACGGUCAUAGGCCAUGGAAACUAGGAGCACCAUUCCGCUGCCAGUGAAGAAAUGAACAAAGAAAAUCAGGGCCAGGCAGGCAUCAAAAGAAAUAGUCUUGCGCUCAACCAGAAAGUCUGUAAUCAUUUUAAGGGUA [U39C U72A]	0.32
GUUAACGGUCAUAGGCCAUGGAAACUAGGAGCACCAUUCCGCUGCCAGUGAAGAAAUGAACAAAGAAAAUCCGGGCCAGGCAGGCAUCAAAAGAAAUAGUCUUGCGCUCAACCAGAAAGUCUGUAAUCAUUUUAAGGGUA [U39C U72C]	0.27
GUUAACGGUCAUAGGCCAUGGAAACUAGGAGCACCAUUCCGCUGCCAGUGAAGAAAUGAACAAAGAAAAUCUGGGCCAGGCAGGCAUCAAAAGAAAUAGUCUUGCGCUCAACCAGAAAGUUUGUAAUCAUUUUAAGGGUA [U39C C121U]	2.87
GUUAACGGUCAUAGGCCAUGGAAACUAGGAGCACCAUUCCGCUGCCAGUGAAGAAAAGAACAAAGAAAAUCUGGGCCAGGCAGGCAUCAAAAGAAAUAGUCUUGCGCUCAACCAGAAAGUCUGUAAUCAUUUUAAGGGUA [U39C U57A]	0.92
GUUAACGGUCAUAGGCCAUGGAAACUAGGAGCACCAUUCCGCUGCCAGUGAAGAAACGAACAAAGAAAAUCUGGGCCAGGCAGGCAUCAAAAGAAAUAGUCUUGCGCUCAACCAGAAAGUCUGUAAUCAUUUUAAGGGUA [U39C U57C]	1.64
GUUAACGGUCAUAGGCCAUGGAAACUAGGAGCACCAUUCCGCUGCCAGUGAAGAAAUGAACAAAGAAAAUCUGGGCCAGGCAGGCAUCAAAAGAAAUAGUCUUGCGCUCAACCAGAAAGUCUGUAAUCAUCUUAAGGGUA [U39C U131C]	1.05
GUUAACGGUCAUAGGCCAUGGAAACUAGGAGCACCAUUCCGCUGCCAGUGAAGAAAUGAACAAAGAAAAUCUGGGCCAGGCAGGCAUCAAAAGAAAUAGUCUUGCGCUCAACCAGAAAGUCUGCAAUCAUUUUAAGGGUA [U39C U124C]	1.25
